Laboratory results published in article PMC5036006.

Experiments:
Experiment in all cases: co-immunoprecipitation from transfected HEK293T
Details in all cases: reference: wild-type parafibromin; sites Y290,Y293,Y315
[1] = target: Notch intracellular domain (NICD) intracellular domain, 1744-2183 (UniProt Q01705)
Gli1 = Gli1 (UniProt P08151)
β-catenin = β-catenin (UniProt P35222)

binding against the reference [1]: stronger
binding against the reference (Gli1): stronger
binding against the reference (β-catenin): stronger
Substance: parafibromin (from UniProt Q6P1J9) PR-parafibromin Y290/293/315F
